These are literature values, as cited in publication PMC8061042.

This data set addresses MS1.

MS1, sequence (main, as listed by the source): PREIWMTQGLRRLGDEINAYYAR

With MCL-1 (from UniProt Q07820), the Kd (commonly the equilibrium constant for the complex coming apart) was 1.9 nM.
